Source: the supplement of paper PMC10126150
± gives the standard deviation of the averaged measurements.

Each sequence was assayed on ATP (assay: switch fluorescence ratio, 500 uM ATP over buffer (Cy3 cluster intensity, sum of 5 cycles each) (fold (ratio)); higher = stronger signal-on switching upon ATP binding; sequences stand for … in TCGTCGGCAGCGTCAGATGTGTATAAGAGACAGTTTTTTTTTTTTTTTTTTTTTTTTT…TC). Details: aptamer strand: ATP DNA aptamer (quencher-CACCTGGGGGAGTATTGCGGAGGAAGG + anchor), 100 nM annealed; ATP concentration: 500 uM.
Summary of the method: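 Imaging in selection buffer was followed by imaging after 15 min with 500 uM ATP at 22 °C, for Cy3-labelled switching-strand clusters annealed to 100 nM quencher-labelled ATP aptamer on a modified Illumina MiSeq flow-cell. Five of these buffer/ATP cycles ran, separated by NaOH stripping and re-annealing. The fluorescence ratio per cluster is summed target-cycle over summed buffer-cycle Cy3 intensity, averaged per switch-domain sequence; clusters outside 100-1000 RFU were removed.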
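Further: ATP exposure 15 min at 22 °C before imaging.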

First: AAAGCAGTAT
Second: AAAGCCGCTG
The switch fluorescence ratio of the first is higher: 1.14 ± 0.068 for the first, 1.02 ± 0.033 for the second.

AAAGCCGTAG and AAAGCGAAGG are within error of each other in switch fluorescence ratio: 1.003 ± 0.0082 for the first, 1.01 ± 0.044 for the second.

AAAGCTCGTA and AAAGCTGGGA are within error of each other in switch fluorescence ratio: 1.06 ± 0.054 for the first, 1.01 ± 0.019 for the second.

AAAGCTTATT and AAAGCTTGAT are within error of each other in switch fluorescence ratio: 0.99822 ± 0.00097 for the first, 1.01 ± 0.02 for the second.

First: AAAGCTTTTC
Second: AAAGGACGAG
The switch fluorescence ratio of the first is higher: 1.07 ± 0.01 for the first, 0.983 ± 0.019 for the second.

AAAGGAGAGG and AAAGGAGGTC are within error of each other in switch fluorescence ratio: 1.01 ± 0.05 for the first, 1.05 ± 0.033 for the second.

AAAGGAGGTT and AAAGGATAAT are within error of each other in switch fluorescence ratio: 1 ± 0.028 for the first, 1.01 ± 0.0077 for the second.

Going from AAAGGATAGC to AAAGGCGGTG, the switch fluorescence ratio falls from 1.017 ± 0.0044 to 0.976 ± 0.023.

AAAGGGAGAT and AAAGGGAGGA are within error of each other in switch fluorescence ratio: 1.027 ± 0.0085 for the first, 1.02 ± 0.036 for the second.

AAAGGGAGTA and AAAGGGCCAG are within error of each other in switch fluorescence ratio: 0.999 ± 0.041 for the first, 1.02 ± 0.02 for the second.

AAAGGGCGCA and AAAGGGCTGT are within error of each other in switch fluorescence ratio: 1.02 ± 0.017 for the first, 1.01 ± 0.043 for the second.

AAAGGGGAGT and AAAGGGGGAG are within error of each other in switch fluorescence ratio: 1.04 ± 0.11 for the first, 0.997 ± 0.011 for the second.

AAAGGGGGTT and AAAGGGGTTA are within error of each other in switch fluorescence ratio: 1.04 ± 0.042 for the first, 1 ± 0.024 for the second.

AAAGGGTAAC and AAAGGGTGGG are within error of each other in switch fluorescence ratio: 0.988 ± 0.036 for the first, 1.01 ± 0.013 for the second.

AAAGGTACGT and AAAGGTAGAG are within error of each other in switch fluorescence ratio: 0.987 ± 0.021 for the first, 1.01 ± 0.04 for the second.

Going from AAAGGTCTGG to AAAGGTTCAA, the switch fluorescence ratio rises from 0.9794 ± 0.0049 to 1.03 ± 0.011.

AAAGGTTTGT and AAAGTAGACA are within error of each other in switch fluorescence ratio: 1.02 ± 0.024 for the first, 1.005 ± 0.0063 for the second.

AAAGTCTAAA and AAAGTCTCGT are within error of each other in switch fluorescence ratio: 0.977 ± 0.015 for the first, 0.972 ± 0.018 for the second.

AAAGTGATTA and AAAGTGGTTC are within error of each other in switch fluorescence ratio: 1.01 ± 0.022 for the first, 1.04 ± 0.053 for the second.

AAAGTGTGTT and AAAGTTAATA are within error of each other in switch fluorescence ratio: 0.993 ± 0.025 for the first, 0.9897 ± 0.0064 for the second.

AAAGTTACGT and AAAGTTCGGG are within error of each other in switch fluorescence ratio: 1.01 ± 0.044 for the first, 0.982 ± 0.033 for the second.

AAAGTTGCAG and AAAGTTGTCT are within error of each other in switch fluorescence ratio: 1.02 ± 0.023 for the first, 1.01 ± 0.028 for the second.

AAAGTTTGCG and AAATAAAGCT are within error of each other in switch fluorescence ratio: 1.04 ± 0.11 for the first, 1.07 ± 0.073 for the second.

AAATAAATTT and AAATAACTAG are within error of each other in switch fluorescence ratio: 1.01 ± 0.055 for the first, 0.99 ± 0.015 for the second.

Compared with AAATAACTTT, AAATAATGCA is lower in switch fluorescence ratio: 1.027 ± 0.0051 for the first, 0.9863 ± 0.0076 for the second.

AAATAATGGT and AAATAATGT are the same in switch fluorescence ratio: 1.02 ± 0.041 for the first, 1.02 ± 0.016 for the second.

First: AAATACCGTT
Second: AAATACGGGA
The switch fluorescence ratio of the first is lower: 1.021 ± 0.0057 for the first, 1.17 ± 0.13 for the second.

AAATAGGCA and AAATAGGGCT are within error of each other in switch fluorescence ratio: 0.981 ± 0.017 for the first, 1.004 ± 0.0097 for the second.

Compared with AAATAGGGGG, AAATATCTCA is higher in switch fluorescence ratio: 0.967 ± 0.026 for the first, 1.02 ± 0.013 for the second.

AAATATCTCT and AAATATCTGC are within error of each other in switch fluorescence ratio: 0.982 ± 0.048 for the first, 1.04 ± 0.029 for the second.

AAATATGACT and AAATCAAATT are within error of each other in switch fluorescence ratio: 1.06 ± 0.058 for the first, 1.007 ± 0.0055 for the second.

AAATCAGTGG and AAATCATATT are within error of each other in switch fluorescence ratio: 0.998 ± 0.031 for the first, 0.968 ± 0.0054 for the second.

AAATCATTAA and AAATCCTTGT are within error of each other in switch fluorescence ratio: 1.02 ± 0.018 for the first, 0.992 ± 0.039 for the second.

AAATCGAGGT and AAATCGATGG are within error of each other in switch fluorescence ratio: 0.9917 ± 0.0052 for the first, 0.9987 ± 0.0023 for the second.

Compared with AAATCGCCTT, AAATCGTCGG is lower in switch fluorescence ratio: 1.05 ± 0.02 for the first, 0.991 ± 0.024 for the second.

AAATCTCGT and AAATCTTTAT are within error of each other in switch fluorescence ratio: 0.995 ± 0.058 for the first, 1.01 ± 0.032 for the second.

First: AAATGAAAAC
Second: AAATGAACCG
The switch fluorescence ratio of the first is lower: 0.98 ± 0.037 for the first, 1.06 ± 0.013 for the second.

AAATGAGATT and AAATGCAGGT are within error of each other in switch fluorescence ratio: 1.002 ± 0.0048 for the first, 0.9908 ± 0.0061 for the second.

AAATGCCGAT and AAATGCGGTA are within error of each other in switch fluorescence ratio: 0.992 ± 0.015 for the first, 1 ± 0.056 for the second.

Compared with AAATGCTTG, AAATGGGACT is higher in switch fluorescence ratio: 0.983 ± 0.019 for the first, 1.03 ± 0.026 for the second.

AAATGGGGGT and AAATGGGTAC are within error of each other in switch fluorescence ratio: 0.975 ± 0.011 for the first, 0.9935 ± 0.0099 for the second.

Going from AAATGGGTTC to AAATGGTGAT, the switch fluorescence ratio rises from 0.9874 ± 0.0083 to 1.035 ± 0.0041.

AAATGGTGTA and AAATGGTTGG are within error of each other in switch fluorescence ratio: 0.983 ± 0.028 for the first, 0.995 ± 0.025 for the second.

AAATGTAAAA and AAATGTCTAG are the same in switch fluorescence ratio: 1.01 ± 0.042 for the first, 1.01 ± 0.037 for the second.

AAATGTCTCT and AAATGTTTAA are the same in switch fluorescence ratio: 1.01 ± 0.012 for the first, 1.01 ± 0.019 for the second.

AAATGTTTGT and AAATTAAAGG are within error of each other in switch fluorescence ratio: 1.006 ± 0.0099 for the first, 1 ± 0.013 for the second.

AAATTAGGAT and AAATTAGGTC are within error of each other in switch fluorescence ratio: 0.997 ± 0.039 for the first, 0.95 ± 0.11 for the second.

AAATTATTTC and AAATTCAATG are within error of each other in switch fluorescence ratio: 0.989 ± 0.033 for the first, 0.995 ± 0.013 for the second.

AAATTCATTA and AAATTGCGAC are within error of each other in switch fluorescence ratio: 0.981 ± 0.083 for the first, 1.03 ± 0.026 for the second.

First: AAATTGGACA
Second: AAATTGGGG
The switch fluorescence ratio of the first is higher: 1.04 ± 0.049 for the first, 0.9583 ± 0.0056 for the second.
